Test results reported in patent US20180142000A1 (NATIONAL RESEARCH COUNCIL OF CANADA, published 2018).

Biological target: FlagV1P
Test: fluorescence microscopy with FITC-labeled pentabody on whole bacteria

B1: C. jejuni strain 11168 flagella (other)
chain 1: GFRINTNVAALNAKANADLNSKSLDASLSRLSSGLRINSAADDASGMAIADSLRSQANTLGQAISNGNDALGILQTADKAMDEQLKILDTIKTKATQAAQDGQSLKTRTMLQADINRLMEELDNIANTTSFNGKQLLSGNFINQEFQIGASSNQTVKATIGATQSSKIGLTRFETGGRISTSGEVQFTLKNYNGIDDFQFQKVVISTSVGTGLGALADEINKNADKTGVRATFTVETRGIAAVRAGATSDTFAINGVKIGKVDYKDGDANGALVAAINSVKDTTGVEASIDANGQLLLTSREGRGIKIDGNIGGGAFINADMKENYGRLSLVKNDGKDILISGSNLSSAGFGATQFISQASVSLRESKGQIDANIADAMGFGSANKGVVLGGYSSVSAYMSSAGSGFSSGSGYSVGSGKNYSTGFANAIAISAASQLSTVYNVSAGSGFSSGSTLSQFATMKTTAFGVKDETAGVTTLKGAMAVMDIAETAITNLDQIRADIGSVQNQVTSTINNITVTQVNVKAAESQIRDVDFAAESANYSKANILAQSGSYAMAQANSVQQNVLRLLQ
chain 2: GFRINTNIGALNAHANSVVNARELDKSLSRLSSGLRINSAADDASGMAIADSLRSQAATLGQAINNGNDAIGILQTADKAMDEQLKILDTIKTKATQAAQDGQSLKTRTMLQADINRLMEELDNIANTTSFNGKQLLSGNFINQEFQIGASSNQTIKATIGATQSSKIGLTRFETGGRISSSGEVQFTLKNYNGIDDFQFQKVVISTSVGTGLGALAEEINKSADKTGVRATFTVETRGIAAVRAGTTSDTFAINGVTIGQVAYEDGDGNGALVAAINSVKDTTGVEASIDANGQLLLTSREGRGIKIDGNIGGGAFINADMKENYGRLSLVKNDGKDILISGSNLSSAGFGATQFISQASVSLRESKGRFDANIADAMGFGSANKGVVLGGYSSVSAYMSSAGSGFSSGSGYSVGSGKNYSTGFANAIAISAASQLSTVYNVSAGSGFSSGSTLSQFATMKTTAFGVKDETAGVTTLKGAMAVMDIAETATTNLDQIRADIGSVQNQLQVTINNITVTQVNVKAAESTIRDVDFAAESANFSKYNILAQSGSYAMSQANAVQQNVLKLLQ
  binding result: no binding
